Here are results for one protein from publication doi:10.1101/2024.06.17.598829 (bioRxiv, 2024).

This data set concerns the molecule itself. The data set can be described thus: SEC. (In general: In gel filtration, larger molecules generally elute earlier.)

As usually defined, the stoichiometry N is a count of units in the complex or per binding partner.

Where “and” joins values, the source holds several entries; their conditions need not be identical. Equal entries are not always repeated.

B1: MBP:NPH3-C104 (domain or fragment, Arabidopsis, UniProt Q9FMF5 643-746, looked up)
chain: PQSFQEGWAAAKKDINTLKFELETVKTKYVELQNEMEVMQRQFEKTGKVKNTPSSSAWTSGWKKLSKLTKMSGQESHDISSGGEQAGVDHPPPRKPRRWRNSIS
Take B1: the “stoichiometry N” value is 3 and 6.
